According to US20220372138A1 (IOMX THERAPEUTICS, published 2022):
Numbering of substitutions follows the chain as printed. Like-named read-outs stand apart in the source and are kept apart here.

T1: human IGSF11 (VSIG3) expressed on cells (human, UniProt Q5DX21 23-431)
T1 sequence: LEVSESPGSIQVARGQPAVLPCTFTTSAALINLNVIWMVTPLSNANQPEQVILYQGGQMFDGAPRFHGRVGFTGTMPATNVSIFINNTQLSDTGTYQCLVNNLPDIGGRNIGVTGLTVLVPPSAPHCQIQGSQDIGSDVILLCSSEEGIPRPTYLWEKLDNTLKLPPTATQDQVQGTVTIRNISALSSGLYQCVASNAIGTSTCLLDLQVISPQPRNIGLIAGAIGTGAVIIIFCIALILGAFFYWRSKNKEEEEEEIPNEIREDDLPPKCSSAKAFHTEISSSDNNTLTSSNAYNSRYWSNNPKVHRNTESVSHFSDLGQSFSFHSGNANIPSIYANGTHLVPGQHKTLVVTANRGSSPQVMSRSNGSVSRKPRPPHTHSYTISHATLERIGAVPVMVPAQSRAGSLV

T2: human IGSF11 (VSIG3) ECD, His-tagged (human, UniProt Q5DX21 23-241)
T2 construct: in part bought (SinoBiological 13094-H08H); also called HIS-IGSF11; IGSF11-HIS; not shown: His tag
T2 sequence: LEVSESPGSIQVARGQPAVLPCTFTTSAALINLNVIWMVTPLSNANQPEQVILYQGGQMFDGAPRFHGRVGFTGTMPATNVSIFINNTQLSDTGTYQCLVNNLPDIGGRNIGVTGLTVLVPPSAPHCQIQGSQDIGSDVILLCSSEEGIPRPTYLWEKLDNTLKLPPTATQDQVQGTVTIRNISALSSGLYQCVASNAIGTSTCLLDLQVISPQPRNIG

T3: extracellular domain (ECD) of human IGSF11 (VSIG3), recombinant (human, UniProt Q5DX21 23-241)
T3 construct: biotinylated where captured on streptavidin; tags of the reagent not always stated; also called IGSF11 (ECD domain); ECD-IGSF11
T3 sequence: T2 sequence

T4: full-length ECD of human IGSF11 fused to murine Fc (human, UniProt Q5DX21 23-241)
T4 construct: also called Fc-fusion IGSF11 ECD; not shown: murine Fc
T4 sequence: T2 sequence

T5: IgC2 domain of human IGSF11 fused to murine IgG2a Fc (human, UniProt Q5DX21 137-241)
T5 construct: not shown: murine IgG2a Fc-region
T5 sequence: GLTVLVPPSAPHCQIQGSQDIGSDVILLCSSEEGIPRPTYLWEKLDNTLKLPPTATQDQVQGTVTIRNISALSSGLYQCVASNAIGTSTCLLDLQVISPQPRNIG

T6: murine IGSF11 expressed on cells (mouse, UniProt P0C673 23-428)
T6 construct: MC38-IGSF11, CT26-IGSF11, MC38-wt (naturally expresses murine IGSF11)
T6 sequence: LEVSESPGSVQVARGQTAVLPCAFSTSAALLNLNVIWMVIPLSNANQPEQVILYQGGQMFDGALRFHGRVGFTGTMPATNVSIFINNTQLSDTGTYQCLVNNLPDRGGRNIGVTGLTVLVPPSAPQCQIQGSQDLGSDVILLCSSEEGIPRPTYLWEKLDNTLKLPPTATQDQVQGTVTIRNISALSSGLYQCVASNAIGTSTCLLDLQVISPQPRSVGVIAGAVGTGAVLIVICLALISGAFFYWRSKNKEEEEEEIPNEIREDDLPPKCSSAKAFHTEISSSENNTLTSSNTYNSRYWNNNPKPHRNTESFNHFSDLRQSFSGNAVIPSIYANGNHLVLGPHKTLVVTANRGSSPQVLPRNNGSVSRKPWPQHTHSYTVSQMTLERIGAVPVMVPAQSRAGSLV

T7: IgV domain of human IGSF11 fused to murine IgG2a Fc (human, UniProt Q5DX21 23-143)
T7 construct: not shown: murine IgG2a Fc-region
T7 sequence: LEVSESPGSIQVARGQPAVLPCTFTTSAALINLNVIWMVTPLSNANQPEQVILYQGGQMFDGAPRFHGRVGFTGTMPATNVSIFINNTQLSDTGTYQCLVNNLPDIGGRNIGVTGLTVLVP

B1: A-012 (IgG1 format) (antibody, V domains shown)
VH: EVQLLESGGGLIQPGGSLRLSCAVSGFTVSSNYMSWVRQAPGKGLEWVSVIYSGGSTYYADSVKGRFTISRDNSKNTLYLQMNSLRAEDTAVYYCARGNPYYYGDLQVNFDYWGQGTLVTVSS
VL: QAVVTQEPSLTVSPGGTVTLTCASSTGAVTSGYYPNWFQQKPGQAPRALIYSTSNKHSWTPARFSGSLLGGKAALTLSGVQPEDEAEYYCLLYYGGAWVFGGGTKLTVL
notes: human IgG1 format
B2: B-005 (chain-swapped IgG1) (antibody, V domains shown)
VH: B1 VH
VL: B1 VL with L20P, A23G, Y33N, Y34L, F64I
notes: human IgG1 format; also called B5
B3: B-003 (chain-swapped IgG1) (antibody, V domains shown)
VH: B1 VH
VL: B1 VL with G16E, K41R, H57D
notes: human IgG1 format; also called B3
B4: A-026 (IgG1 format) (antibody, V domains shown)
VH: QVQLQESGPGLVKPSQTLSLTCTVSGGSISSGGYYWSWIRQHPGKGLEWIGYIYYSGSTYYNPSLKSRVTISVDTSKNQFSLKLSSVTAADTAVYYCASWSLGTSNHGWFDPWGQGTLVTVSS
VL: QSVLTQPPSASGTPGQRVTISCSGSSSNIGSNTVNWYQQLPGTAPKLLISDNNNRPSGVPDRFSGSKSGTSASLAITGLQAEDEADYYCQSYDSNLSGWVFGGGTKLTVL
notes: human IgG1 format
B5: C-007 (IgG1 format) (antibody, V domains shown)
VH: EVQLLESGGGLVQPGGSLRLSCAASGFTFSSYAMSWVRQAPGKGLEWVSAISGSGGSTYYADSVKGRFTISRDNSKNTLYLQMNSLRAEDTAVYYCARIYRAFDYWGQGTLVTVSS
VL: ASVLTQPPSVSAAPGQKVTISCSGSSSNIGNNYVSWYQQLPGTAPKLLIYDNNKRPSGIPDRFSGSKSGTSATLGITGLQAEDEADYYCQLYEEEHSTWVFGGGTKLTVL
B6: C-001 (IgG1 format) (antibody, V domains shown)
VH: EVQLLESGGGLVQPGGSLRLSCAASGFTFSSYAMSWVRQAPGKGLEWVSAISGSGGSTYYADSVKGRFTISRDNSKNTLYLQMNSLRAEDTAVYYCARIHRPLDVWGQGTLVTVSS
VL: B5 VL with Q90G, L91S, Y92W, E93L, H96R, T98Q, W99Y
B7: A-004 (IgG1 format) (antibody, V domains shown)
VH: EVQLVESGGGLVKPGGSLRLSCAASGFTFSSYSMNWVRQAPGKGLEWVSSISSSSSYIYYADSVKGRFTISRDNAKNSLYLQMNSLRAEDTAVYYCARGQLLWFGESALIDAFDIWGQGTMVTVSS
VL: EIVLTQSPSSLSASVGDRVTITCRASQSISSYLNWYQLKPGKAPKLLIYAASILQSGVPSRFSGSGSGTDFTLTISSLQPEDFAAYYCQQSYSTPRTFGQGTKLEIK
notes: human IgG1 format
B8: A-010 (IgG1 format) (antibody, V domains shown)
VH: QVQLVQSGAEVKKPGASVKVSCKASGYTFTSYGISWVRQAPGQGLEWMGWISAYNGNTNYAQKLQGRVTMTTDTSTSTAYMELRSLRSDDTAVYYCARVPAWSGQFDYWGQGTLVTVSS
VL: QSALTQPASVSGSPGQSITISCTGSSSDVGGYNYVSWYQQYPGKAPKLMIYDVRSRPSGVSNRFSGSKSGNTASLTISGLQAEDEADYYCTSYTSSNTLVIFGGGTKVTVL
notes: human IgG1 format
B9: C-003 (IgG1 format) (antibody, V domains shown)
VH: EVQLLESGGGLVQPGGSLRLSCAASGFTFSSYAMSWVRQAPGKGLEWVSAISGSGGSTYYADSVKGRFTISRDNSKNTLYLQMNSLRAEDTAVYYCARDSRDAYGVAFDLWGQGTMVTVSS
VL: ASVLTQPPSVSAAPGQKVTISCSGSSSNIGNNYVSWYQQLPGTAPKLLIYDNNKRPSGIPDRFSGSKSGTSATLGITGLQAEDEADYYCLSYTSSQYVFGGGTKLTVL
B10: A-011 (IgG1 format) (antibody, V domains shown)
VH: QVQLVESGGGVVQPGRSLRLSCAASGFTFSSYAMHWVRQAPGKGLEWVAVISYDGSNKYYADSVKGRFTISRDNSKNTLYLQMNSLRAEDTAVYYCAEGGALNYYGMDVWGQGTTVTVSS
VL: SSELTQDPGVSVALGQTVRITCQGDSLRHFYATWYQQKPGQAPILVIYGKNNRPSGIPDRFSGSSSEDTASLTITGAQAEDEADYYCQSRDPRNNHLIFGGGTKLIVL
notes: human IgG1 format

Legend:
[1] = target: T1, human IGSF11 (VSIG3) expressed on cells; assay: FACS, DMS 273 cells with scrambled control siRNA (SC)
[2] = target: T2, human IGSF11 (VSIG3) ECD, His-tagged; assay: IgG1 ELISA EC50 0.02-0.05 nM
[3] = target: T1, human IGSF11 (VSIG3) expressed on cells; assay: FACS, DMS 273 cells with IGSF11 siRNA (KD, knock-down control)
[4] = target: T1, human IGSF11 (VSIG3) expressed on cells; assay: FACS, M579-A2-luc cells with scrambled control siRNA (SC)
[5] = target: T1, human IGSF11 (VSIG3) expressed on cells; assay: IgG1 FACS HEK-OE
[6] = target: T1, human IGSF11 (VSIG3) expressed on cells; assay: IgG1 FACS DMS 273
[7] = target: T1, human IGSF11 (VSIG3) expressed on cells; assay: FACS, M579-A2-luc cells with IGSF11 siRNA (KD, knock-down control)
[8] = target: T3, extracellular domain (ECD) of human …; assay: BLI
[9] = target: T2, human IGSF11 (VSIG3) ECD, His-tagged; assay: blocking ELISA: VSIR-Fc immobilised, IgG dilution series pre-incubated with 200 nM IGSF11 ECD-His, bound IGSF11 detected with anti-His-HRP
[10] = target: T2, human IGSF11 (VSIG3) ECD, His-tagged; assay: ELISA: IGSF11-HIS coated, IgG1 dilution series, anti-human antibody-HRP, TMB
[11] = target: T3, extracellular domain (ECD) of human …; assay: SPR
[12] = target: T4, full-length ECD of human IGSF11 fused …; assay: IgG ELISA
Method: (§1) Binding of IgG antibodies to each of the full-length ECD of IGSF11, to the IgV domain of IGSF11 and to the IgC2 domain of IGSF11, was tested in the ELISA assay as follows: briefly, recombinant domains of Fc-fusion IGSF11 proteins were coated at 2 ug/mL on a 384-well Maxisorp plate. The surface was blocked with 2% (w/v) skim milk powder in PBST. […] After removing all unbound antibodies by 3 wash cycles with PBST, bound IgG ABPs were detected with a goat anti-human IgG antibody conjugated with horseradish peroxidase. After three wash cycles with PBST the ELISA was developed with TMB substrate.

[13] = target: T5, IgC2 domain of human IGSF11 fused to …; assay: IgG ELISA
Method: as §1

[14] = target: T1, human IGSF11 (VSIG3) expressed on cells; assay: IgG FACS MDA-MB-231-IGSF11
From the text: (§2) Unbound antibodies were removed by washing the cells three time with FACS buffer. Bound antibodies were detected with a mouse anti-human IgG antibody conjugated with AlexaFluor647.

[15] = target: T6, murine IGSF11 expressed on cells; assay: IgG FACS CT26-IGSF11
From the text: as §2

[16] = target: T7, IgV domain of human IGSF11 fused to …; assay: IgG ELISA
Method: as §1

[17] = target: T4, full-length ECD of human IGSF11 fused …; assay: IgG ELISA; remark: listed apart in the source
Method: as §1

[18] = target: T6, murine IGSF11 expressed on cells; assay: IgG FACS MC38-IGSF11
From the text: as §2

[19] = target: T3, extracellular domain (ECD) of human …; assay: BLI apparent affinity, IgG on AHC sensor, IGSF11 ECD 100 nM
From the text: Briefly, various APBs were loaded on an optical biosensor via a commercially available Capture System (AHC sensors, ForteBio).

[20] = target: T2, human IGSF11 (VSIG3) ECD, His-tagged; assay: IgG1 ELISA EC50 <0.02 nM
[21] = target: T7, IgV domain of human IGSF11 fused to …; assay: IgG ELISA; remark: listed apart in the source
Method: as §1

[22] = target: T5, IgC2 domain of human IGSF11 fused to …; assay: IgG ELISA; remark: listed apart in the source
Method: as §1

Row | Binder | % binding (FACS heat-map) [1] | % binding (FACS heat-map) [3] | % binding (FACS heat-map) [4] | EC50 [5] | % binding (FACS heat-map) [7] | Kd [8] | IC50 (read off the curve) [9] | EC50 (read off the curve) [10] | Kd [11] | EC50 [12] | EC50 [14] | EC50 [15] | EC50 [17] | EC50 [18] | Kd [19] | EC50 [20] | also measured
1 | B1 | 75.8% | 4.77% | 65.4% | 10 to 50 nM | 2.35% | 1 to 10 nM | ~2 nM | ~0.008 nM | 250 to 500 nM | – | – | – | – | – | – | – | EC50 [2]: 0.02 to 0.05 nM; EC50 [6]: 10 to 50 nM
2 | B2 | – | – | – | – | – | – | ~2 nM | ~0.01 nM | – | – | – | – | – | – | – | – | –
3 | B3 | – | – | – | – | – | – | ~2 nM | ~0.008 nM | – | – | – | – | – | – | – | – | –
4 | B4 | 64.4% | 3.81% | 11.6% | > 50 nM | 2.01% | 20 to 30 nM | – | – | > 500 nM | 1 to 20 nM | – | – | – | – | – | – | EC50 [13]: 1 to 20 nM; EC50 [2]: 0.02 to 0.05 nM
5 | B5 | – | – | – | – | – | – | – | – | – | – | < 10 nM | 20 to 50 nM | < 1 nM | < 20 nM | < 125 nM | – | EC50 [16]: < 1 nM
6 | B6 | – | – | – | – | – | – | – | – | – | – | < 10 nM | 20 to 50 nM | < 1 nM | 50 to 100 nM | < 75 nM | – | EC50 [16]: < 1 nM
7 | B7 | – | – | – | – | – | – | – | – | 100 to 250 nM | 1 to 20 nM | – | – | – | – | – | < 0.02 nM | EC50 [21]: 1 to 20 nM
8 | B8 | – | – | – | – | – | – | – | – | – | < 1 nM | – | – | – | – | – | < 0.02 nM | EC50 [21]: < 1 nM
9 | B9 | – | – | – | – | – | – | – | – | – | – | 10 to 15 nM | < 20 nM | < 1 nM | < 20 nM | < 15 nM | – | EC50 [22]: < 1 nM
10 | B10 | 6.95% | 3.4% | 2.05% | > 50 nM | 2.41% | 10 to 20 nM | – | – | 250 to 500 nM | < 1 nM | – | – | – | – | – | < 0.02 nM | EC50 [13]: < 1 nM
